Data published in paper PMC2744881 (Journal of molecular biology, 2009).

T1: SufD of the purified SufB-SufC-SufD complex (E. coli, UniProt P77689 1-423)
T1 sequence: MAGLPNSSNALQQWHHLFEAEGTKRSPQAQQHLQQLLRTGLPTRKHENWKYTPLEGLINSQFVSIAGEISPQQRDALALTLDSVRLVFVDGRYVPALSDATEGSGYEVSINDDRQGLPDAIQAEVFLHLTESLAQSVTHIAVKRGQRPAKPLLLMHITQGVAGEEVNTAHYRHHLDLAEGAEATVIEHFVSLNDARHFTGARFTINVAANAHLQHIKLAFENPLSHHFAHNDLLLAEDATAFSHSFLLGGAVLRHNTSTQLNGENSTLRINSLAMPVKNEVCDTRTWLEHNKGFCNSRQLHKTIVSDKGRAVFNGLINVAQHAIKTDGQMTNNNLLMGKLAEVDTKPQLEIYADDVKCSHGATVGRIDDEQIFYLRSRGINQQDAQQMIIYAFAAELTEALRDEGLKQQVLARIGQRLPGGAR

T2: N-terminally His10-tagged SufC protein (E. coli, UniProt P77499 1-248)
T2 sequence (looked up): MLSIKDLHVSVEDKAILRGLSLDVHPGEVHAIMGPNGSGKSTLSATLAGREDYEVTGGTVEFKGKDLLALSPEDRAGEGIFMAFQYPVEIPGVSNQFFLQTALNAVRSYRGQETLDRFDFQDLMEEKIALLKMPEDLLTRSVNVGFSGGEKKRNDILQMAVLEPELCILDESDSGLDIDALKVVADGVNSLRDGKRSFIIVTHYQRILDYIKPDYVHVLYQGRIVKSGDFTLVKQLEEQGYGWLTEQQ

B1: SufB of the purified SufB-SufC-SufD complex (natural protein, E. coli, UniProt P77522 1-495, looked up)
chain: MSRNTEATDDVKTWTGGPLNYKEGFFTQLATDELAKGINEEVVRAISAKRNEPEWMLEFRLNAYRAWLEMEEPHWLKAHYDKLNYQDYSYYSAPSCGNCDDTCASEPGAVQQTGANAFLSKEVEAAFEQLGVPVREGKEVAVDAIFDSVSVATTYREKLAEQGIIFCSFGEAIHDHPELVRKYLGTVVPGNDNFFAALNAAVASDGTFIYVPKGVRCPMELSTYFRINAEKTGQFERTILVADEDSYVSYIEGCSAPVRDSYQLHAAVVEVIIHKNAEVKYSTVQNWFPGDNNTGGILNFVTKRALCEGENSKMSWTQSETGSAITWKYPSCILRGDNSIGEFYSVALTSGHQQADTGTKMIHIGKNTKSTIISKGISAGHSQNSYRGLVKIMPTATNARNFTQCDSMLIGANCGAHTFPYVECRNNSAQLEHEATTSRIGEDQLFYCLQRGISEEDAISMIVNGFCKDVFSELPLEFAVEAQKLLAISLEHSVG

Assays:
[1] = biological target: T1, SufD of the purified SufB-SufC-SufD …; experiment: SEC
[2] = biological target: T2, N-terminally His10-tagged SufC protein; experiment: SEC
[3] = biological target: the molecule itself; experiment: crystal structure
[4] = biological target: the molecule itself; experiment: SEC
[5] = biological target: B1; experiment: SEC

stoichiometry N [1] | Binder | stoichiometry N [4] | also measured
~1 | B1 | – | –
– | SufD protein (natural protein, E. coli, UniProt P77689 1-423, looked up) MAGLPNSSNALQQWHHLFEAEGTKRSPQAQQHLQQLLRTGLPTRKHENWKYTPLEGLINSQFVSIAGEISPQQRDALALTLDSVRLVFVDGRYVPALSDATEGSGYEVSINDDRQGLPDAIQAEVFLHLTESLAQSVTHIAVKRGQRPAKPLLLMHITQGVAGEEVNTAHYRHHLDLAEGAEATVIEHFVSLNDARHFTGARFTINVAANAHLQHIKLAFENPLSHHFAHNDLLLAEDATAFSHSFLLGGAVLRHNTSTQLNGENSTLRINSLAMPVKNEVCDTRTWLEHNKGFCNSRQLHKTIVSDKGRAVFNGLINVAQHAIKTDGQMTNNNLLMGKLAEVDTKPQLEIYADDVKCSHGATVGRIDDEQIFYLRSRGINQQDAQQMIIYAFAAELTEALRDEGLKQQVLARIGQRLPGGAR | – | stoichiometry N [2]: ~1; stoichiometry N [3]: 2
– | N-terminal His-tag SufD with H360C mutation (natural protein, E. coli) MAGLPNSSNALQQWHHLFEAEGTKRSPQAQQHLQQLLRTGLPTRKHENWKYTPLEGLINSQFVSIAGEISPQQRDALALTLDSVRLVFVDGRYVPALSDATEGSGYEVSINDDRQGLPDAIQAEVFLHLTESLAQSVTHIAVKRGQRPAKPLLLMHITQGVAGEEVNTAHYRHHLDLAEGAEATVIEHFVSLNDARHFTGARFTINVAANAHLQHIKLAFENPLSHHFAHNDLLLAEDATAFSHSFLLGGAVLRHNTSTQLNGENSTLRINSLAMPVKNEVCDTRTWLEHNKGFCNSRQLHKTIVSDKGRAVFNGLINVAQHAIKTDGQMTNNNLLMGKLAEVDTKPQLEIYADDVKCSCGATVGRIDDEQIFYLRSRGINQQDAQQMIIYAFAAELTEALRDEGLKQQVLARIGQRLPGGAR | 2 | –
– | wild-type SufD (reference of the gel filtration of His-tagged SufD proteins) (natural protein, E. coli) MAGLPNSSNALQQWHHLFEAEGTKRSPQAQQHLQQLLRTGLPTRKHENWKYTPLEGLINSQFVSIAGEISPQQRDALALTLDSVRLVFVDGRYVPALSDATEGSGYEVSINDDRQGLPDAIQAEVFLHLTESLAQSVTHIAVKRGQRPAKPLLLMHITQGVAGEEVNTAHYRHHLDLAEGAEATVIEHFVSLNDARHFTGARFTINVAANAHLQHIKLAFENPLSHHFAHNDLLLAEDATAFSHSFLLGGAVLRHNTSTQLNGENSTLRINSLAMPVKNEVCDTRTWLEHNKGFCNSRQLHKTIVSDKGRAVFNGLINVAQHAIKTDGQMTNNNLLMGKLAEVDTKPQLEIYADDVKCSHGATVGRIDDEQIFYLRSRGINQQDAQQMIIYAFAAELTEALRDEGLKQQVLARIGQRLPGGAR | 2 | –
– | N-terminal His-tag SufD with H360S mutation (natural protein, E. coli) MAGLPNSSNALQQWHHLFEAEGTKRSPQAQQHLQQLLRTGLPTRKHENWKYTPLEGLINSQFVSIAGEISPQQRDALALTLDSVRLVFVDGRYVPALSDATEGSGYEVSINDDRQGLPDAIQAEVFLHLTESLAQSVTHIAVKRGQRPAKPLLLMHITQGVAGEEVNTAHYRHHLDLAEGAEATVIEHFVSLNDARHFTGARFTINVAANAHLQHIKLAFENPLSHHFAHNDLLLAEDATAFSHSFLLGGAVLRHNTSTQLNGENSTLRINSLAMPVKNEVCDTRTWLEHNKGFCNSRQLHKTIVSDKGRAVFNGLINVAQHAIKTDGQMTNNNLLMGKLAEVDTKPQLEIYADDVKCSSGATVGRIDDEQIFYLRSRGINQQDAQQMIIYAFAAELTEALRDEGLKQQVLARIGQRLPGGAR | 2 | –
~2 | SufC of the purified SufB-SufC-SufD complex (natural protein, E. coli) MLSIKDLHVSVEDKAILRGLSLDVHPGEVHAIMGPNGSGKSTLSATLAGREDYEVTGGTVEFKGKDLLALSPEDRAGEGIFMAFQYPVEIPGVSNQFFLQTALNAVRSYRGQETLDRFDFQDLMEEKIALLKMPEDLLTRSVNVGFSGGEKKRNDILQMAVLEPELCILDESDSGLDIDALKVVADGVNSLRDGKRSFIIVTHYQRILDYIKPDYVHVLYQGRIVKSGDFTLVKQLEEQGYGWLTEQQ | – | stoichiometry N [5]: ~2
